Test system: CC(C)(C)OO
Assay: purified protein
Settings: pH 7.4; 25.0 °C

Question: For “Lba (soybean leghemoglobin a, recombinant, ferric metLb) (Glycine max)”, which Km is on record?
Answer: 5.4 ± 0.05 mM

Reference: article PMC8659191, “Expressed Soybean Leghemoglobin: Effect on Escherichia coli at Oxidative and Nitrosative Stress” (Molecules, 2021)
